Where a chain is given by its changes, count along the chain named.
B1: antibody 342 (antibody, V domains shown)
VH: EVQLVQSGAEVKKPGATVKISCKVSGYTFTDYYMHWVQQAPGKGLEWMGLVDPEDGETIYAEKFQGRVTITADTSTDTAYMELSSLRSEDTAVYYCATGGVSVWFREFPASYSGSYLGYWGQGTLVTVSS
VL: not shown
B2: antibody 340 (antibody, V domains shown)
VH: QVQLVQSGAEVKKPGASVKVSCKASGYTFTSYDINWVRQATGQGLEWMGWMNPNSGNTGYAQKFQGRVTMTRNTSISTAYMELSSLRSEDTAVYYCARGRYCTGGVCWGDWYFDLWGRGTLVTVSS
VL: QSVLTQPPSVSGAPGQRVTISCTGSSSNIGAGYDVHWYQQLPGTAPKFLIYGNSNRPSGVPDRFSGSKSGTSASLAITGLQAEDEADYYCQSYDSSLSGPVFGGGTKLTVL
B3: antibody 332 (antibody, V domains shown)
VH: QVTLRESGPALVKPTQTLTLTCTFSGFSLSTSGMCVSWIRQPPGKALEWLALIDWDDDKYYSTSLKTRLTISKDTSKNQVVLTMTNMDPVDTATYYCARIHDDILTGYHYVDYWGQGTLVTVSS
VL: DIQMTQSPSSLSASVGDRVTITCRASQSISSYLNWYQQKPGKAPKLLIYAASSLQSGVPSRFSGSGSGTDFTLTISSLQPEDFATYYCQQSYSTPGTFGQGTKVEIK
B4: antibody 333 (antibody, V domains shown)
VH: QVHLVESGGGVVLPGRSLRLSCSASQFIFSNYDMHWVRQSPGMGLEWVAGISSDGSDKYYIDSVRGRFTISRDNAKNTLFLQMNSLTTEDTAVYSCAKGGGKFGQYWGRGTLVTVSS
VL: AIQMTQSPSSLSASVGDRVTITCRASQVIRNDLAWFQQKPGEAPNLLVYSASNLQSGVPSRFSGSGSGTDFTLTISSLQPEDFATYYCLQDYSYPYTFGQGTKLDMK
B5: antibody 367 (antibody, V domains shown)
VH: QVQLVQSGAEVKKPGASVKVSCKASGYTFTGYYIHWVRQAPGQGLEWMGWINPNSGGTIYAQKFQGRVTMTRDTSISTAYMELSRLTSDDTAVYSCAREPYYDILTGYYAPRRYFDYWGQGTLVTVSS
VL: QSALTQPASVSGSPGQSITISCTGTSSDVGSYNYVSWYLQHPGKAPKLMIYDVSNRPSGVSNRFSGSKSGNTASLTISGLQAEDEADFYCSSYTSRSTYVFGTGTKVTVL
B6: antibody 379 (antibody, V domains shown)
VH: QVQLQESGPGLVKPSQTLSLTCTVSGGSISSGGYYWSWIRQHPGKGLEWIGYIYYSGSTYYNPSLKSRVTISVDTSKNQFSLKLSSVTAADTAVYYCARGPLDFWSGYFRLRYFDSWGQGTLVTVSS
VL: B5 VL with S31G, L39Q, S54T, F88Y, R96S, Y99C
B7: antibody 329 (antibody, V domains shown)
VH: EVQLVESGGGLVQPGGSLRLSCAASGFTFSSYWMHWVRQAPGKGLVWVSRINSDGSSTSYADSVKGRFTISRDNAKNTLYLQMNSLRAEDTAVYYCAREGIVATITLDYWGQGTLVTVSS
VL: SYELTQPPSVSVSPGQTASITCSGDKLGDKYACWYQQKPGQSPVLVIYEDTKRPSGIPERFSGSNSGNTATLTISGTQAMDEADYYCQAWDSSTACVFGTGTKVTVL
B8: antibody 349 (antibody, V domains shown)
VH: EVQLVQSGAEVKKPGATVKISCKVSGYTFTDYYMHWVQQAPGKGLEWMGLVDPEDGETIYAEKFQGRVTITADTSTDTAYMELSSLRSEDTAVYYCATENKVPTIIAAAGTRDYYYYGMDVWGQGTTVTVSS
VL: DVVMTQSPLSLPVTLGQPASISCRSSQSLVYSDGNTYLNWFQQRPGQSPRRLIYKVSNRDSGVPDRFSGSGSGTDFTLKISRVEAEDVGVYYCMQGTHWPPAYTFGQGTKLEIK
B9: antibody 366 (antibody, V domains shown)
VH: QVQLVESGGGVVQPGRSLRLSCAASGFTFSSYAMHWVRQAPGKGLEWVAVISYDGSNKYYADSVKGRFTISRDNSKNTLYLQMNSLRAEDTAVYYCARGLVGYNWFDPWGQGTLVTVSS
VL: DIQMTQSPSSVSASVGDRVTITCRASQGISSWLAWYQQKPGKAPKLLIYAASSLQSGVPSRFSGSGSGTDFTLTISSLQPEDFATYYCQQANSFTFGPGTKVDIK
B10: antibody 331 (antibody, V domains shown)
V domain 1: QITLKESGPTLVKPTETLTLTCSFSGFSLTKTGEAAGWIRQAPGRALEWVTVIFWDDDKRYSPSLQNRISVTKDTSKNQVVLRMTNVARFDTGTYFCWAMGGPGKEYFGQGTLVAVSS
V domain 2: QSVLTQPPSVSGAPGQRVTISCTGTSSSIGPYSDVHWYQHVSGKAPRLLIFGNSNRPSGVPDRFSGSKSGTSASLVIAGLQAEDEADYYCQSYDSSLGEIYVFGTGTTVTVL
B11: antibody 339 (antibody, V domains shown)
V domain 1: B10 V domain 1 with K31R, N67S, I69L, S70T, R83T, G93A, L113Q
V domain 2: B10 V domain 2
B12: antibody 368 (antibody, V domains shown)
V domain 1: QITLKESGPTLVKPTETLTLTCAFSGFSLTKTGEAAGWIRQAPGRALEWVTVIFWDDDKRYSPSLQNRLTVTKDTSKNVVVLTMTNVDPVDTATYFCWAMGGPGKEFFGQGTRVAVSS
V domain 2: B10 V domain 2 with I20V, V41I, S42P, N53T, D62A, T71S
B13: antibody 348 (antibody, V domains shown)
VH: QVQLVQSGSELKKPGASVKVSCKASGYTFTSYAMNWVRQAPGQGLEWMGWINTNTGNPTYAQGFTGRFVFSLDTSVSTAYLQISSLKAEDTAVYYCARDHELPNTSSWFGHFEYWGQGTLVTVSS
VL: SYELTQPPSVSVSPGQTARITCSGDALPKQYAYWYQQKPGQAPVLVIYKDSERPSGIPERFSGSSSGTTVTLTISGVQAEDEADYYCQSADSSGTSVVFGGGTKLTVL
B14: antibody 320 (antibody, V domains shown)
VH: QVQLVQSGAEVKKPGASVKVSCKASGYTFTSYGISWVRQAPGQGLEWMGWISAYNGNTNYAQKLQGRVTMTTDTSTRTAYMELRSLRSDDTAVYYCARVGCYYDSSGYSCAENFQHWGQGTLVTVSS
VL: QSVLTQPPSVSGAPGQRVTISCTGSSSNIGAGYDVHWYQQLPGTAPKLLIYGNSNRPSGVPDRFSGSKSGTSASLAITGLQAEDEADYYCQSYDSSLSALFGGGTKLTVL
B15: antibody 337 (antibody, V domains shown)
VH: QVQLVESGGGVVQPGRSLRLSCAASGFTFSSYGMHWVRQAPGKGLEWVAIIWYDGSNKYYADSVKGRFTISRDNSKNTLYLQMNSLRAEDTAVYYCAKDTGGYCSGGSCYPESYFDYWGQGTLVTVSS
VL: SYVLTQPPSVSVAPGKTARITCGGNNIGSKSVHWYQQKPGQAPVLVIYYDSDRPSGIPERFSGSNSGNTATLTINRVEAGDEADYYCQVWDGSSDHLYVFGTGTKVTVL
B16: antibody 351 (antibody, V domains shown)
VH: HVQLVESGGGVVQPGRSLRLSCAASGFISRNYGMEWVRQAPGQGLEWVAGIWYDGSKKYYADSVKGRFTISRDTSKNTLFLQMDSLRAEDTAVFYCATATKTFCGGDCPPGGMDVWGQGTTVTVST
VL: SYVLTQPPSVSVAPGKTAWITCVGNNIESESVHWYQQRPGQAPVLVIYYDSDRPSGIPERFFGSNSGNTATLTISRVEAGDEADYYCQVWDSNSDLMVFGGGTKLTVL
B17: antibody 323 (antibody, V domains shown)
VH: QVQLVQSGAEVKKPGASVKVSCKVSGYTLTELSMHWVRQAPGKGLEWMGGFDPEDGETIYAQKFQGRVTMTEDTSTDTAYMELSSLRSEDTAVYYCATSTIFAPGGWFDPWGQGTLVTVSS
VL: QSALTQPASVSGSPGQSITISCTGTSSDVGSYNLVSWYQQHPGKAPKLMIYEVSKRPSGVSNRFSGSKSGNTASLTISGLQAEDEADYYCCSYAGSTHYVFGTGTKVTVL
B18: antibody 372 (antibody, V domains shown)
VH: QVQLVESGGGVVQPGRSLRLSCAASGFTFSSYAMHWVRQAPGKGLEWVAVISYDGSNKYYADSVKGRFTISRDNSKNTLYLQMNSLRAEDTAVYYCARDLGTSALLWFGELFLNYGMDVWGQGTTVTVSS
VL: QSALTQPRSVSGSPGQSVTISCTGTSSDVGGYNYVSWYQQHPGKAPKLMIYDVSKRPSGVPDRFSGSKSGNTASLTISGLQAEDEADYYCCSYAGSPILVFGGGTKLTVL
B19: antibody 345 (antibody, V domains shown)
VH: QVQLQESGPGLVKPSQTLSLTCTVSGGSISSGDYYWSWIRQPPGKGLEWIGYIYYSGSTYYNPSLKSRVTISVDTSKNQFSLKLSSVTAADTAVYYCARVGMVDNWNFEGNWFDPWGQGTLVTVSS
VL: QSALTQPRSVSGSPGQSVTISCTGTSSDVGGYNYVSWYQQHPGKAPKLMIYDVSKRPSGVPDRFSGSKSGNTASLTISGLQAEDEADYYCCSYAGSVVFGGGTKLTVL
B20: antibody 363 (antibody, V domains shown)
VH: EVQLLESGGGLVQPGGSLRLSCAASGFTFSTYAMSWVRQAPGKGLEWVSAISGSGGSTYYADSVKGRFTISRDNSKNTLYLQMNSLRAEDTAVYYCASGYSPDYWGQGTLVTVSS
VL: not shown
B21: antibody 343 (antibody, V domains shown)
VH: QVQLVESGGDVVQPGTSLRLSCAASGFTFNNYGFHWVRQAPGKGLEWVALISSDGASTHYADSVKGRFTISRDSSVNTLYLQMNSLSLEDTAVYYCATGHCGTTCYYFDYWGQGTLVSVSS
VL: DIQVTQSPSYLSASVGDRVTITCRASQTISTFLQWYQQKVGKAPKLLIYAASTLQSGVPSRFSGSGSGTDFSLTISSLQPEDFATYYCQQSYSAPLSFGGGTKVEIK
B22: antibody 324 (antibody, V domains shown)
VH: QVQLQESGPGLVKPSGTLSLTCAVSGGSISSSNWWSWVRQPPGKGLEWIGEIYHSGSTNYNPSLKSRVTISVDNSKNQFSLKLSSVTAADTAVYYCARESVAAAGISYYYYGMDVWGQGTTVTVSS
VL: EIVLTQSPGTLSLSPGERATLSCRASQSVSGRYLAWYQQKPGQAPRLLIYGASSRATGIPDRFSGSGSGTDFTLTISRLEPEDFAVYYCQHYGSSPGTFGQGTRLEIK
B23: antibody 328 (antibody, V domains shown)
VH: B22 VH
VL: DIQMTQSPSSLSASVGDRVTITCRASQGIRNDLGWYQQKPGKAPKRLIYAASSLQSGVPSRFSGSGSGTEFTLTVSGLQPEDFATYYCLQYNSSPLTFGGGTKVEIK

Target: SARS-CoV Spike protein (SARS-CoV, UniProt P59594 14-1190)

| Binder | bead binding signal (median fluorescence, fold over isotype control) |
| --- | --- |
| B1 | 1.16 fold over isotype control |
| B2 | 1.26 fold over isotype control |
| B3 | 0.99 fold over isotype control |
| B4 | 1.21 fold over isotype control |
| B5 | 1.08 fold over isotype control |
| B6 | 5.9 fold over isotype control |
| B7 | 2.46 fold over isotype control |
| B8 | 1.12 fold over isotype control |
| B9 | 1.23 fold over isotype control |
| B10 | 1.34 fold over isotype control |
| B11 | 1.27 fold over isotype control |
| B12 | 1.09 fold over isotype control |
| B13 | 1.16 fold over isotype control |
| B14 | 989 fold over isotype control |
| B15 | 439 fold over isotype control |
| B16 | 1.08 fold over isotype control |
| B17 | 1.29 fold over isotype control |
| B18 | 1.08 fold over isotype control |
| B19 | 1.09 fold over isotype control |
| B20 | 1.09 fold over isotype control |
| B21 | 1.19 fold over isotype control |
| B22 | 1.14 fold over isotype control |
| B23 | 1.22 fold over isotype control |

Reference: patent US20220356229A1 (published 2022)
